According to the supplement of paper PMC10065799, “High-throughput profiling of sequence recognition by tyrosine kinases and SH2 domains using bacterial peptide display” (eLife, 2023):

Molecular target: MERTK (UniProt Q12866)
Test: phosphorylation enrichment, bacterial display (enrichment ratio); higher = better substrate or ligand; peptides without Tyr show the background
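Throughout, for SH2 binding enrichment of the phosphorylated peptide, bacterial display: peptide library displayed on the E. coli surface as eCPX fusions, selected cells deep-sequenced, score is each peptide's frequency after selection divided by its frequency in the input.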
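Throughout, for phosphorylation enrichment, bacterial display: 11-residue human phosphosite peptides and single-mutation variants displayed on the E. coli surface, counted by deep sequencing, each peptide's frequency after selection divided by its frequency in the unselected input library; frequency after pTyr selection over input frequency; kinase dosed for 20-30% of maximal phosphorylation in three min.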

MERTK, sequence (Q12866 whole entry, looked up): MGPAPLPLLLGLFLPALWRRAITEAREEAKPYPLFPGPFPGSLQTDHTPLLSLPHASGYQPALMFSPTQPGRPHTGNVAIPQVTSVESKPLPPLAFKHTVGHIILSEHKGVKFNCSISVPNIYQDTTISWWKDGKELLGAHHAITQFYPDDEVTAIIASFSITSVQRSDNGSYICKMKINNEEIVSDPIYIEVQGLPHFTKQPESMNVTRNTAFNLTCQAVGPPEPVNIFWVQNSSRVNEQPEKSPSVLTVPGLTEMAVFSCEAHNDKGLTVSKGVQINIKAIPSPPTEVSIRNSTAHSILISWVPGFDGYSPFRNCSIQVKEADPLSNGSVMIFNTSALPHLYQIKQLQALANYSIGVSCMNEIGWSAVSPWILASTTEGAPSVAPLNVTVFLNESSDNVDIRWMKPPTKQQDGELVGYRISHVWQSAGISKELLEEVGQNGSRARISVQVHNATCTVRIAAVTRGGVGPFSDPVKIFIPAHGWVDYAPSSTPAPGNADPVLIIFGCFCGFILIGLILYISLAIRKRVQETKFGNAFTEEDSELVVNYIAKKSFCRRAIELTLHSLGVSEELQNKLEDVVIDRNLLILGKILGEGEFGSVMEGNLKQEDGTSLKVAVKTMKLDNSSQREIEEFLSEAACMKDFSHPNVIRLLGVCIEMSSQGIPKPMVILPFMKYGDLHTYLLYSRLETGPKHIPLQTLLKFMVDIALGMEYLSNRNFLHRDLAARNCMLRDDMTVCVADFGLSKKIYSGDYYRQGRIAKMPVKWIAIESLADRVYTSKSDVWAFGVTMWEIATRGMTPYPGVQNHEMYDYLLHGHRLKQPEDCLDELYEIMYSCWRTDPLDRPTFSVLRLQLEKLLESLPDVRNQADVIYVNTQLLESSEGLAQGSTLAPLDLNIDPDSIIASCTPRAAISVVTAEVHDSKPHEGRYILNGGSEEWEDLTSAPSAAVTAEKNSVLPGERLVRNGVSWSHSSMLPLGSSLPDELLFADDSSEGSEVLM

Sequence	phosphorylation enrichment
PHIKTYMRPSP [TDP1_Y497]	0.429
NHFKRYNLCAE [PTEN_Y68_I67R_YF]	0.485
GGGGGYNCSSG [FUS_Y232_R234C]	0.342
IKNFKYGIEEH [GJA1_Y137_K134N]	0.383
NHYKIYNPCAE [PTEN_Y68_L70P]	0.427
FSTPPYLLEAA [BRIP1_Y921_S919P_YF]	0.497
PTFKHYANSTQ [SLC12A3_Y70_E68K_YF]	0.375
DKTGEYPVPLI [ACADM_Y73]	0.392
DQGEQYKKELE [LMNA_Y259_V256G]	0.467
LDYNEYFRDLN [HPRT1_Y198]	0.519
SISLRYEGRVY [ABL1_Y167]	0.428

Tested on: c-Src
Test: as above

Sequence	phosphorylation enrichment
PHIKTYMRPSP [TDP1_Y497]	0.435
NHFKRYNLCAE [PTEN_Y68_I67R_YF]	0.538
GGGGGYNCSSG [FUS_Y232_R234C]	0.355
IKNFKYGIEEH [GJA1_Y137_K134N]	0.368
NHYKIYNPCAE [PTEN_Y68_L70P]	0.424
FSTPPYLLEAA [BRIP1_Y921_S919P_YF]	0.669
PTFKHYANSTQ [SLC12A3_Y70_E68K_YF]	0.365
DKTGEYPVPLI [ACADM_Y73]	0.436
DQGEQYKKELE [LMNA_Y259_V256G]	0.522
LDYNEYFRDLN [HPRT1_Y198]	0.649
SISLRYEGRVY [ABL1_Y167]	0.394

Molecular target: Fes (UniProt P07332)
Test: as above

Sequence	phosphorylation enrichment
PHIKTYMRPSP [TDP1_Y497]	0.688
NHFKRYNLCAE [PTEN_Y68_I67R_YF]	0.668
GGGGGYNCSSG [FUS_Y232_R234C]	0.666
IKNFKYGIEEH [GJA1_Y137_K134N]	0.715
NHYKIYNPCAE [PTEN_Y68_L70P]	0.834
FSTPPYLLEAA [BRIP1_Y921_S919P_YF]	1
PTFKHYANSTQ [SLC12A3_Y70_E68K_YF]	0.774
DKTGEYPVPLI [ACADM_Y73]	0.957
DQGEQYKKELE [LMNA_Y259_V256G]	1.39
LDYNEYFRDLN [HPRT1_Y198]	1.33
SISLRYEGRVY [ABL1_Y167]	1.09

Molecular target: Jak2 (UniProt O60674)
Sequence (O60674 whole entry, looked up): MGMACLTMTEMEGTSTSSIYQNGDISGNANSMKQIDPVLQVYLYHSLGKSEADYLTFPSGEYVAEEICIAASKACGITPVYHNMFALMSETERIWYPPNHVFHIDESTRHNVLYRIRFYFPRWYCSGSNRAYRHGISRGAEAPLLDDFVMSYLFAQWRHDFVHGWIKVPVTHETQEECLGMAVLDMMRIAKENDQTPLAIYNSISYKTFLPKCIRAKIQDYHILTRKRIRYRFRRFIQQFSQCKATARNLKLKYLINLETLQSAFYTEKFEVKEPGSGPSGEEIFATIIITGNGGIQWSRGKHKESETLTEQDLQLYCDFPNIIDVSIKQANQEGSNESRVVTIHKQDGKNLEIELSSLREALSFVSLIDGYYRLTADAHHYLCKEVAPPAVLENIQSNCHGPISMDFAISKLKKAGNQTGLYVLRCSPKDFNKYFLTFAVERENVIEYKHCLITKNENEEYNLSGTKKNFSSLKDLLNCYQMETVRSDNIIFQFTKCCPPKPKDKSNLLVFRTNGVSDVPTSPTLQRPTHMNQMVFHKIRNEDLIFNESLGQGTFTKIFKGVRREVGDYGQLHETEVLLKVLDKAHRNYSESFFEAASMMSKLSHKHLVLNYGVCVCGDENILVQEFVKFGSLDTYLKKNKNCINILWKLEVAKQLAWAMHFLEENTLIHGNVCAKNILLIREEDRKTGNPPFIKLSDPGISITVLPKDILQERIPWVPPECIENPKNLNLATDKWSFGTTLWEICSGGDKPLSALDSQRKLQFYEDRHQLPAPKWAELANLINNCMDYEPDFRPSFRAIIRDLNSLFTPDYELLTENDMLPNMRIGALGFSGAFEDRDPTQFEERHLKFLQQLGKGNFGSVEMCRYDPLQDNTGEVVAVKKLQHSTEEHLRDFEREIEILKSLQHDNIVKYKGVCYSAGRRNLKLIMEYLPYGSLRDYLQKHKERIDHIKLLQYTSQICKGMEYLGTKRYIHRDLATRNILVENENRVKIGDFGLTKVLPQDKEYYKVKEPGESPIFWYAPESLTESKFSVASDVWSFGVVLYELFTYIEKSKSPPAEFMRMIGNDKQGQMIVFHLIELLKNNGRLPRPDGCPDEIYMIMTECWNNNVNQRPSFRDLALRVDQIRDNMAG
Test: as above

Sequence	phosphorylation enrichment
PHIKTYMRPSP [TDP1_Y497]	0.586
NHFKRYNLCAE [PTEN_Y68_I67R_YF]	0.59
GGGGGYNCSSG [FUS_Y232_R234C]	0.614
IKNFKYGIEEH [GJA1_Y137_K134N]	0.682
NHYKIYNPCAE [PTEN_Y68_L70P]	0.569
FSTPPYLLEAA [BRIP1_Y921_S919P_YF]	0.909
PTFKHYANSTQ [SLC12A3_Y70_E68K_YF]	0.455
DKTGEYPVPLI [ACADM_Y73]	0.856
DQGEQYKKELE [LMNA_Y259_V256G]	1.31
LDYNEYFRDLN [HPRT1_Y198]	1.68
SISLRYEGRVY [ABL1_Y167]	1.06

Molecular target: EPHB2 (UniProt P29323)
Sequence (P29323 whole entry, looked up): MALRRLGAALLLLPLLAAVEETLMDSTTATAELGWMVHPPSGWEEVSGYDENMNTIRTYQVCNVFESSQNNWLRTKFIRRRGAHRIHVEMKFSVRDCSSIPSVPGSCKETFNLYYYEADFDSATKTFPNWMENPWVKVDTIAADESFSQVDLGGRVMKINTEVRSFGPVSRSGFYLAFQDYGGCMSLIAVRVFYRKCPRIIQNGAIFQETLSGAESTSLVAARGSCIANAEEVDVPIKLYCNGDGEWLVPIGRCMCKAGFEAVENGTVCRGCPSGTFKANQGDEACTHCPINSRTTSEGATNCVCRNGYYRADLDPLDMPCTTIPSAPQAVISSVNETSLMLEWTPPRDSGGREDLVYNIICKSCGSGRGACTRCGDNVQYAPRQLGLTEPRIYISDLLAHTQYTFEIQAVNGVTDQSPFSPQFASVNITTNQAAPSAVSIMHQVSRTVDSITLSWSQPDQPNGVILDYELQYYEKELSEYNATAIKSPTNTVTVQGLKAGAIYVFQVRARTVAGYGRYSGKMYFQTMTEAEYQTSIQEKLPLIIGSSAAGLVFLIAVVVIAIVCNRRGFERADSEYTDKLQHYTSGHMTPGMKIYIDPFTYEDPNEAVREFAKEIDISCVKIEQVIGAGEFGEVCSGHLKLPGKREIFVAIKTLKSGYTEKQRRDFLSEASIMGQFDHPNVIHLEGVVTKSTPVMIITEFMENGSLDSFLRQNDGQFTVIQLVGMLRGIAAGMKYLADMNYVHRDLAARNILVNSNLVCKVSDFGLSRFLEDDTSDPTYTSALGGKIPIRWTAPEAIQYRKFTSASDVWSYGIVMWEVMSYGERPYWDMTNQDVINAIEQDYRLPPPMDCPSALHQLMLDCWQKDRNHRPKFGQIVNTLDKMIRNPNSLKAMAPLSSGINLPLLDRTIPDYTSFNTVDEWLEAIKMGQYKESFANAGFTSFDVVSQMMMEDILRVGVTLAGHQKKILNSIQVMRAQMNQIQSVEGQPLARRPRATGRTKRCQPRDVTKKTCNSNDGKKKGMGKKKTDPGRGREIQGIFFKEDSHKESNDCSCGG
Test: as above

Sequence	phosphorylation enrichment
PHIKTYMRPSP [TDP1_Y497]	0.518
NHFKRYNLCAE [PTEN_Y68_I67R_YF]	0.565
GGGGGYNCSSG [FUS_Y232_R234C]	0.432
IKNFKYGIEEH [GJA1_Y137_K134N]	0.508
NHYKIYNPCAE [PTEN_Y68_L70P]	0.48
FSTPPYLLEAA [BRIP1_Y921_S919P_YF]	0.601
PTFKHYANSTQ [SLC12A3_Y70_E68K_YF]	0.506
DKTGEYPVPLI [ACADM_Y73]	0.575
DQGEQYKKELE [LMNA_Y259_V256G]	0.676
LDYNEYFRDLN [HPRT1_Y198]	0.753
SISLRYEGRVY [ABL1_Y167]	0.563

Molecular target: Hck (UniProt P08631)
Test: as above

Sequence	phosphorylation enrichment
PHIKTYMRPSP [TDP1_Y497]	0.441
NHFKRYNLCAE [PTEN_Y68_I67R_YF]	0.449
GGGGGYNCSSG [FUS_Y232_R234C]	0.411
IKNFKYGIEEH [GJA1_Y137_K134N]	0.414
NHYKIYNPCAE [PTEN_Y68_L70P]	0.55
FSTPPYLLEAA [BRIP1_Y921_S919P_YF]	0.434
PTFKHYANSTQ [SLC12A3_Y70_E68K_YF]	0.507
DKTGEYPVPLI [ACADM_Y73]	0.49
DQGEQYKKELE [LMNA_Y259_V256G]	0.535
LDYNEYFRDLN [HPRT1_Y198]	0.661
SISLRYEGRVY [ABL1_Y167]	0.506

Molecular target: EPHB1 (UniProt P54762)
Sequence (P54762 whole entry, looked up): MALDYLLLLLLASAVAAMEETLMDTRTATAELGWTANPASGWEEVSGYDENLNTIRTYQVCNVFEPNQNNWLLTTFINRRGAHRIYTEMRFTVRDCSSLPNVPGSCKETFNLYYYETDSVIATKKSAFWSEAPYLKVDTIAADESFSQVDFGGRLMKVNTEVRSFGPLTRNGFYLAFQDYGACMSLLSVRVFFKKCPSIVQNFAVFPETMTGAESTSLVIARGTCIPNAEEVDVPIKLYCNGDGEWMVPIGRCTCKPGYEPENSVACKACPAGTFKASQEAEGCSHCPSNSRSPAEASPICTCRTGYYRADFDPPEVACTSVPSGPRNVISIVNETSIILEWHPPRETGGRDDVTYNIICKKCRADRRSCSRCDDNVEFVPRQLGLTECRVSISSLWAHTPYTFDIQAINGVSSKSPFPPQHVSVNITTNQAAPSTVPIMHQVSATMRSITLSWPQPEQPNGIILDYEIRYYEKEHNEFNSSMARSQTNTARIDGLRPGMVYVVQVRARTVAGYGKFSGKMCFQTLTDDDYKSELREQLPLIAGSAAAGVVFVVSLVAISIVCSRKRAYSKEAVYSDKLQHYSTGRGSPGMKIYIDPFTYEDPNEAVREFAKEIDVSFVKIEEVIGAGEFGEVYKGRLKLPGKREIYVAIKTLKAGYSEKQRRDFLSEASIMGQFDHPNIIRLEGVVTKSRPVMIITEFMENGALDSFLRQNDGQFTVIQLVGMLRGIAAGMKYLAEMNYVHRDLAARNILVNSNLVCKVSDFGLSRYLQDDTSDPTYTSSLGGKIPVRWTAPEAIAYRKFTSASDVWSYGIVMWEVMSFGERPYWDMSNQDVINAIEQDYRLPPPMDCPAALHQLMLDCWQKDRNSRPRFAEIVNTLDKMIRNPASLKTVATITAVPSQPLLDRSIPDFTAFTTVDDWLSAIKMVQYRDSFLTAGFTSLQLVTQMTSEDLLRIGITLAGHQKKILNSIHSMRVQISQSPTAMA
Test: as above

Sequence	phosphorylation enrichment
PHIKTYMRPSP [TDP1_Y497]	0.645
NHFKRYNLCAE [PTEN_Y68_I67R_YF]	0.384
GGGGGYNCSSG [FUS_Y232_R234C]	0.402
IKNFKYGIEEH [GJA1_Y137_K134N]	0.351
NHYKIYNPCAE [PTEN_Y68_L70P]	0.437
FSTPPYLLEAA [BRIP1_Y921_S919P_YF]	0.521
PTFKHYANSTQ [SLC12A3_Y70_E68K_YF]	0.603
DKTGEYPVPLI [ACADM_Y73]	0.528
DQGEQYKKELE [LMNA_Y259_V256G]	0.801
LDYNEYFRDLN [HPRT1_Y198]	0.741
SISLRYEGRVY [ABL1_Y167]	0.606

Molecular target: Fyn (UniProt P06241)
Sequence (P06241 whole entry, looked up): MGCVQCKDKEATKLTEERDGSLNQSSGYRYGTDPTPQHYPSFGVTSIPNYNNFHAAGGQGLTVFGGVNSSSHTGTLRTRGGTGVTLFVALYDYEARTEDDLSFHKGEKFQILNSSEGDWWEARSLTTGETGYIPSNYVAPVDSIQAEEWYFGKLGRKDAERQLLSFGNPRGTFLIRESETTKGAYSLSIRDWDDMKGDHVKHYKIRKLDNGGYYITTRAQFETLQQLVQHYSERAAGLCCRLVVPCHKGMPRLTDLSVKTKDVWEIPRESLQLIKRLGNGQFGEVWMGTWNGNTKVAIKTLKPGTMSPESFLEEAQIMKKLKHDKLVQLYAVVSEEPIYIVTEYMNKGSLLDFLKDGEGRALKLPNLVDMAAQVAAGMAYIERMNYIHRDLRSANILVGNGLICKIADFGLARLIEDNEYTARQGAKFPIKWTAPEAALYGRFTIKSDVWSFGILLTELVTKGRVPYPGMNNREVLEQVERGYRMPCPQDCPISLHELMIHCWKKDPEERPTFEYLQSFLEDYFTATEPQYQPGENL
Test: as above

Sequence	phosphorylation enrichment
PHIKTYMRPSP [TDP1_Y497]	0.861
NHFKRYNLCAE [PTEN_Y68_I67R_YF]	0.459
GGGGGYNCSSG [FUS_Y232_R234C]	0.41
IKNFKYGIEEH [GJA1_Y137_K134N]	0.335
NHYKIYNPCAE [PTEN_Y68_L70P]	0.508
FSTPPYLLEAA [BRIP1_Y921_S919P_YF]	0.619
PTFKHYANSTQ [SLC12A3_Y70_E68K_YF]	0.482
DKTGEYPVPLI [ACADM_Y73]	0.407
DQGEQYKKELE [LMNA_Y259_V256G]	0.488
LDYNEYFRDLN [HPRT1_Y198]	0.828
SISLRYEGRVY [ABL1_Y167]	0.513

Molecular target: FGFR3 (UniProt P22607)
Test: as above

Sequence	phosphorylation enrichment
PHIKTYMRPSP [TDP1_Y497]	0.547
NHFKRYNLCAE [PTEN_Y68_I67R_YF]	0.471
GGGGGYNCSSG [FUS_Y232_R234C]	0.626
IKNFKYGIEEH [GJA1_Y137_K134N]	0.549
NHYKIYNPCAE [PTEN_Y68_L70P]	0.573
FSTPPYLLEAA [BRIP1_Y921_S919P_YF]	0.707
PTFKHYANSTQ [SLC12A3_Y70_E68K_YF]	0.599
DKTGEYPVPLI [ACADM_Y73]	0.687
DQGEQYKKELE [LMNA_Y259_V256G]	0.682
LDYNEYFRDLN [HPRT1_Y198]	1.28
SISLRYEGRVY [ABL1_Y167]	0.776

Tested on: c-Abl (mouse)
Test: as above

Sequence	phosphorylation enrichment
PHIKTYMRPSP [TDP1_Y497]	0.654
NHFKRYNLCAE [PTEN_Y68_I67R_YF]	0.678
GGGGGYNCSSG [FUS_Y232_R234C]	0.534
IKNFKYGIEEH [GJA1_Y137_K134N]	0.38
NHYKIYNPCAE [PTEN_Y68_L70P]	0.607
FSTPPYLLEAA [BRIP1_Y921_S919P_YF]	0.76
PTFKHYANSTQ [SLC12A3_Y70_E68K_YF]	0.591
DKTGEYPVPLI [ACADM_Y73]	0.55
DQGEQYKKELE [LMNA_Y259_V256G]	1.15
LDYNEYFRDLN [HPRT1_Y198]	1.13
SISLRYEGRVY [ABL1_Y167]	0.803

Molecular target: FGFR1 (UniProt P11362)
Test: as above

Sequence	phosphorylation enrichment
PHIKTYMRPSP [TDP1_Y497]	0.629
NHFKRYNLCAE [PTEN_Y68_I67R_YF]	0.456
GGGGGYNCSSG [FUS_Y232_R234C]	0.378
IKNFKYGIEEH [GJA1_Y137_K134N]	0.388
NHYKIYNPCAE [PTEN_Y68_L70P]	0.485
FSTPPYLLEAA [BRIP1_Y921_S919P_YF]	0.63
PTFKHYANSTQ [SLC12A3_Y70_E68K_YF]	0.574
DKTGEYPVPLI [ACADM_Y73]	0.468
DQGEQYKKELE [LMNA_Y259_V256G]	0.464
LDYNEYFRDLN [HPRT1_Y198]	1.39
SISLRYEGRVY [ABL1_Y167]	0.484

Tested on: Fer (mouse)
Test: as above

Sequence	phosphorylation enrichment
PHIKTYMRPSP [TDP1_Y497]	0.543
NHFKRYNLCAE [PTEN_Y68_I67R_YF]	0.419
GGGGGYNCSSG [FUS_Y232_R234C]	0.415
IKNFKYGIEEH [GJA1_Y137_K134N]	0.311
NHYKIYNPCAE [PTEN_Y68_L70P]	0.382
FSTPPYLLEAA [BRIP1_Y921_S919P_YF]	0.579
PTFKHYANSTQ [SLC12A3_Y70_E68K_YF]	0.509
DKTGEYPVPLI [ACADM_Y73]	0.442
DQGEQYKKELE [LMNA_Y259_V256G]	0.642
LDYNEYFRDLN [HPRT1_Y198]	0.555
SISLRYEGRVY [ABL1_Y167]	0.546

Tested on: AncSZ
Test: as above

Sequence	phosphorylation enrichment
PHIKTYMRPSP [TDP1_Y497]	0.702
NHFKRYNLCAE [PTEN_Y68_I67R_YF]	0.638
GGGGGYNCSSG [FUS_Y232_R234C]	0.563
IKNFKYGIEEH [GJA1_Y137_K134N]	0.621
NHYKIYNPCAE [PTEN_Y68_L70P]	0.714
FSTPPYLLEAA [BRIP1_Y921_S919P_YF]	0.95
PTFKHYANSTQ [SLC12A3_Y70_E68K_YF]	0.651
DKTGEYPVPLI [ACADM_Y73]	0.809
DQGEQYKKELE [LMNA_Y259_V256G]	1.39
LDYNEYFRDLN [HPRT1_Y198]	1.81
SISLRYEGRVY [ABL1_Y167]	1.07

Molecular target: SHP2-C SH2
Test: SH2 binding enrichment of the phosphorylated peptide, bacterial display (enrichment ratio); higher = better substrate or ligand; peptides without Tyr show the background

Sequence	SH2 binding enrichment
PHIKTYMRPSP [TDP1_Y497]	0.777
NHFKRYNLCAE [PTEN_Y68_I67R_YF]	0.618
GGGGGYNCSSG [FUS_Y232_R234C]	0.613
IKNFKYGIEEH [GJA1_Y137_K134N]	0.456
NHYKIYNPCAE [PTEN_Y68_L70P]	0.761
FSTPPYLLEAA [BRIP1_Y921_S919P_YF]	0.655
PTFKHYANSTQ [SLC12A3_Y70_E68K_YF]	0.499
DKTGEYPVPLI [ACADM_Y73]	0.697
DQGEQYKKELE [LMNA_Y259_V256G]	0.716
LDYNEYFRDLN [HPRT1_Y198]	0.861
SISLRYEGRVY [ABL1_Y167]	0.881

Molecular target: c-Src SH2
Test: as above

Sequence	SH2 binding enrichment
PHIKTYMRPSP [TDP1_Y497]	0.695
NHFKRYNLCAE [PTEN_Y68_I67R_YF]	0.644
GGGGGYNCSSG [FUS_Y232_R234C]	0.574
IKNFKYGIEEH [GJA1_Y137_K134N]	0.416
NHYKIYNPCAE [PTEN_Y68_L70P]	0.427
FSTPPYLLEAA [BRIP1_Y921_S919P_YF]	0.607
PTFKHYANSTQ [SLC12A3_Y70_E68K_YF]	0.335
DKTGEYPVPLI [ACADM_Y73]	0.399
DQGEQYKKELE [LMNA_Y259_V256G]	0.517
LDYNEYFRDLN [HPRT1_Y198]	0.645
SISLRYEGRVY [ABL1_Y167]	0.685

Molecular target: Grb2 SH2 (UniProt P62993)
Sequence (P62993 whole entry, looked up): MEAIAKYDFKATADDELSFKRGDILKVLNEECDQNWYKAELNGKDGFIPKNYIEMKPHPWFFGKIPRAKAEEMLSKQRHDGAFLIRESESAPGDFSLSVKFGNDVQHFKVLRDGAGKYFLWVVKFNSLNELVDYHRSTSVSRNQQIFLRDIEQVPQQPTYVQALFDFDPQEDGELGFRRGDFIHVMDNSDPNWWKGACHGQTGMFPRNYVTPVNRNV
Test: as above

Sequence	SH2 binding enrichment
PHIKTYMRPSP [TDP1_Y497]	0.829
NHFKRYNLCAE [PTEN_Y68_I67R_YF]	0.949
GGGGGYNCSSG [FUS_Y232_R234C]	0.928
IKNFKYGIEEH [GJA1_Y137_K134N]	0.865
NHYKIYNPCAE [PTEN_Y68_L70P]	0.752
FSTPPYLLEAA [BRIP1_Y921_S919P_YF]	0.952
PTFKHYANSTQ [SLC12A3_Y70_E68K_YF]	0.671
DKTGEYPVPLI [ACADM_Y73]	0.666
DQGEQYKKELE [LMNA_Y259_V256G]	0.844
LDYNEYFRDLN [HPRT1_Y198]	0.727
SISLRYEGRVY [ABL1_Y167]	1.11
